{
  "source": "patent US20050169843A1",
  "key": {"[1]": {"tested_on": "T1, Gly-Pro-Leu-Gly-Val-Arg-Gly-Lys(FITC)-Cys-NH2 (MMP-2 peptide substrate)", "T1 sequence": "GPLGVRGKC"}, "[2]": {"tested_on": "T2, Gly-Val-Arg-Leu-Gly-Pro-Gly-Lys(FITC)-Cys-NH2 (scrambled control peptide)", "T2 sequence": "GVRLGPGKC"}, "[3]": {"biological_target": "thrombin", "assay": "cell-based or functional assay"}, "[4]": {"tested_on": "T3, Gly-D-Phe-Pip-Arg-Pro-Gly-Gly-Gly-Gly-Lys(FITC)-Cys-NH2 (control peptide)", "T3 sequence": "GFXRPGGGGKC"}, "[5]": {"tested_on": "T4, Gly-D-Phe-Pip-Arg-Ser-Gly-Gly-Gly-Gly-Lys(FITC)-Cys-NH2 (thrombin substrate peptide)", "T4 sequence": "GFXRSGGGGKC"}, "[6]": {"tested_on": "Cy-PL-MPEG at 20% fluorochrome loading (11 of 55 free amino groups labelled with Cy5.5)"}, "[7]": {"biological_target": "MMP-2 (gelatinase 72 kD, Boehringer Mannheim), activated with p-aminophenyl mercuric acid", "assay": "cell-based or functional assay"}, "[8]": {"biological_target": "MMP-9 (human recombinant protein purified from mammalian cells, Oncogene Research Products), APMA activated (human) (UniProt P14780)", "sequence (P14780 107-707 limits assumed)": "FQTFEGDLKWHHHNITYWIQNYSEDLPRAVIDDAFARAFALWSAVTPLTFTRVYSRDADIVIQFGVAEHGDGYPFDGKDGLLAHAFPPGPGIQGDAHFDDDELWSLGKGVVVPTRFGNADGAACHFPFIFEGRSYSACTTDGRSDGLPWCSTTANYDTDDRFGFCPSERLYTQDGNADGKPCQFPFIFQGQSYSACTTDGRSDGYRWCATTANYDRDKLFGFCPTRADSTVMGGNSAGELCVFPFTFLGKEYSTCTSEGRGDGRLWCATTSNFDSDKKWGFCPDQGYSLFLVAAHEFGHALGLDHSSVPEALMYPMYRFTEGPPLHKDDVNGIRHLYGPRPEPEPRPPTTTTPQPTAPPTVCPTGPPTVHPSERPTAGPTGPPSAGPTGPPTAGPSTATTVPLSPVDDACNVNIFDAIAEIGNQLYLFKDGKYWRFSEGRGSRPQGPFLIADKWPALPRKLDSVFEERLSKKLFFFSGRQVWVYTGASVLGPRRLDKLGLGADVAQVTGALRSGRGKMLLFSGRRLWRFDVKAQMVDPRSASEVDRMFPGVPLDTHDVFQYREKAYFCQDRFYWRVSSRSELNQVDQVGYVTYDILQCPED", "assay": "cell-based or functional assay"}, "[9]": {"biological_target": "MMP-1 (human rheumatoid synovial fibroblast, Calbiochem), APMA activated (human) (UniProt P03956)", "sequence (P03956 100-469 limits assumed)": "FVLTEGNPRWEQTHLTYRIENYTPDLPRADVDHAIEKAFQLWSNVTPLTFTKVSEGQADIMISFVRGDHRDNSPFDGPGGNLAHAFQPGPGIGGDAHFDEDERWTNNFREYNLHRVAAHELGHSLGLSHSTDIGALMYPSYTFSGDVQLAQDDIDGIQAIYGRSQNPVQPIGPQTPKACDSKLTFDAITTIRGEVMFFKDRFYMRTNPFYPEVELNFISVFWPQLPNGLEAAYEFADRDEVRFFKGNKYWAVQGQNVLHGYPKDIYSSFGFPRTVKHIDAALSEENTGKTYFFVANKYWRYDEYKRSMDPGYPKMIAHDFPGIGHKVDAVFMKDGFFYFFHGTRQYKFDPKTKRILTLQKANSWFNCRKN", "assay": "cell-based or functional assay"}, "[10]": {"biological_target": "T5, MMP-7 (human recombinant, E. Coli, Calbiochem), APMA activated (human) (UniProt P09237)", "T5 sequence (looked up)": "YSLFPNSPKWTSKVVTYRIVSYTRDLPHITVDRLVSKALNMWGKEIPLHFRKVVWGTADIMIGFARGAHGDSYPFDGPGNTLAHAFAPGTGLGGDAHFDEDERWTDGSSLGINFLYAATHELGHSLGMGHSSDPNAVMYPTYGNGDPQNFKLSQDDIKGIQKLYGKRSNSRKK", "assay": "cell-based or functional assay"}, "[11]": {"biological_target": "MMP-8 (human neutrophil granulocyte, Calbiochem), APMA activated (human) (UniProt P22894)", "sequence (P22894 101-467 limits assumed)": "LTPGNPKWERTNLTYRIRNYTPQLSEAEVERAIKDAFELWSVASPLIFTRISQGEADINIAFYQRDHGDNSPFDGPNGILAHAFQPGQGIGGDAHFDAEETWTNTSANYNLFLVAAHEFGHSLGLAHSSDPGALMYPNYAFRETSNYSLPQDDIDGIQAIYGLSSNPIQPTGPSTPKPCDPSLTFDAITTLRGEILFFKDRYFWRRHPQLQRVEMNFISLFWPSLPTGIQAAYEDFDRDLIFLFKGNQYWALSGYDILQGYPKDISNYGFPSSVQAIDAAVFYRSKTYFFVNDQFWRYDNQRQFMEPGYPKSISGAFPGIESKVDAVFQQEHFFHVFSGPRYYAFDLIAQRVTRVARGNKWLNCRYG", "assay": "cell-based or functional assay"}, "[12]": {"biological_target": "MMP-2 (human recombinant protein purified from mammalian cells, Calbiochem), APMA activated (human) (UniProt P08253)", "sequence (P08253 110-660 limits assumed)": "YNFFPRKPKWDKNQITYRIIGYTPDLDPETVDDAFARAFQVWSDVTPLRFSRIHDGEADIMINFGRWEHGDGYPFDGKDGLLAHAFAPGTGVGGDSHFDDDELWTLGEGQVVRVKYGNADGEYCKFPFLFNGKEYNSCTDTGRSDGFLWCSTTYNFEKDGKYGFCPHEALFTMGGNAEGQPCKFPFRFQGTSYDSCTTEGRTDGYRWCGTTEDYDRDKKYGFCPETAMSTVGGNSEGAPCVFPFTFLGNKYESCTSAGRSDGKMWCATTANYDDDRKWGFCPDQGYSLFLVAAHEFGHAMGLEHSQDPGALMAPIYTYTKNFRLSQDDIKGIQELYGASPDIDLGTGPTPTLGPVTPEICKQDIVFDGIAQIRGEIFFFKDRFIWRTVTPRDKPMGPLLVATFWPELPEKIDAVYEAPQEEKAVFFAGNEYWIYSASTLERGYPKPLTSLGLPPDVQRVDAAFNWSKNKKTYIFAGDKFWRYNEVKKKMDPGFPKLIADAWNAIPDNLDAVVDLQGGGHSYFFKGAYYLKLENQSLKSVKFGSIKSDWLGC", "assay": "cell-based or functional assay"}},
  "note": "Primed or numbered codes have the meaning given here. FITC′ = fluorescein isothiocyanate label",
  "data": [
    {"molecule": "MMP-2 (gelatinase 72 kD, Boehringer Mannheim), activated with p-aminophenyl mercuric acid", "values": [
      {"measurement": "cleavage followed by HPLC", "setting": "[1]", "result": "confirmed by HPLC showing only cleavage of the former but not the latter"},
      {"measurement": "cleavage followed by HPLC", "setting": "[2]", "result": "confirmed by HPLC showing only cleavage of the former but not the latter"}
    ]},
    {"molecule": "control probe (PGC graft copolymer carrying Cy5.5-labelled thrombin control peptide)", "values": [
      {"measurement": "NIRF signal after addition of thrombin", "setting": "[3]", "result": 1, "unit": "fold"}
    ]},
    {"molecule": "thrombin", "values": [
      {"measurement": "enzymatic assay, cleavage followed by HPLC", "setting": "[4]", "result": "there was no cleavage when the serine at P1′ position was replaced by a proline residue"},
      {"measurement": "enzymatic assay, cleavage followed by HPLC", "setting": "[5]", "result": "the peptide was recognized by thrombin and cleaved into two major products"}
    ]},
    {"molecule": "trypsin", "values": [
      {"measurement": "fluorescence signal increase upon activation (trypsin cleavage of the backbone)", "setting": "[6]", "result": "Maximum fluorescence recovery was obtained at 20% loading (15-fold fluorescence signal increase upon activation)"}
    ]},
    {"molecule": "{Cy5.5}-GPLGVRGK(FITC′)C-NH2 (peptide, part only; not given: graft copolymer backbone and dye, part only, not fully specified (residue 9); printed as GPLGVRGK(FITC)C-NH2; also: about 12 peptides per PGC graft copolymer)", "note": "[MMP-2 sensitive probe (PGC graft copolymer carrying Cy5.5-labelled MMP-2 substrate peptides)]", "values": [
      {"measurement": "fluorescence increase in vitro", "setting": "[7]", "result": "< 850", "unit": "%"},
      {"measurement": "relative fluorescence increase at equimolar conditions (scaled to active MMP-2 set to 100%)", "setting": "[8]", "result": 19, "unit": "%"},
      {"measurement": "relative fluorescence increase at equimolar conditions (scaled to active MMP-2 set to 100%)", "setting": "[9]", "result": 19, "unit": "%"},
      {"measurement": "relative fluorescence increase at equimolar conditions (scaled to active MMP-2 set to 100%)", "setting": "[10]", "result": 12, "unit": "%"},
      {"measurement": "relative fluorescence increase at equimolar conditions (scaled to active MMP-2 set to 100%)", "setting": "[11]", "result": 28, "unit": "%"},
      {"measurement": "fluorescence activation (7 pmole enzyme, 10 pmole probe, 10 minutes, 37°)", "setting": "[12]", "result": 4.7, "unit": "AU"}
    ]}
  ]
}
